Data as given in patent US20110044995A1 (KUMAMOTO UNIVERSITY, published 2011).
Several values for one entry are separate records, joined by “and”; a condition that tells them apart may be missing. Equal values may be shown once.

B1: 0.5 δ(3D6) (antibody, IgG1, V domains shown)
VH: EVQLVESAAEVKKPGASVKVSCKASGYTFTSYGISWVRQAPGQGLQWMGWISAYNGNTKFAQEFKGRVTMTTDTSATTAYMELRSLRSDDTAVYYCARRNYYDSGSYYIRDGDYSMDVWGQGTLVTVSS
VL: not shown
notes: also called 3D6(0.5 δ); 0.5 d(3D6)
B2: 42F9 (antibody, IgG1, V domains shown)
VH: EVQLVESGGGVVRPGGSLRLSCAASGFAFGEYGMSWVRQAPGKGLEWVSGINWNGGSTGYADSVQGRFTTSRDNAKNSLYLQMNSLRAEDTALYYCARDENYDILTGNYYYGMDVWGQGTTVTVSS
VL: DIQLTQSPSSLSASVGDRVTITCRASQSISNYLNWYQQKPGKAPKLLIYAASSLQSGVPSRFSGSGSGTDFTLTISSLQPEDFATFYCQQSHSIPYTFGQGTKLEIKR
B3: 0.5 γ(1C10) (antibody, IgG1, V domains shown)
VH: EVQLVESGGGLIQPGGSLRLSCAASGFTVSSSSMSWVRQAPEKGLEWVSVVYSGGNTYNADSVKGRFSISRDNSKNTVYLQMNSLRADDTAVYYCARDLGGGDRSSDYWGQGTLVTVSS
VL: DIQLTQSPSSLSASVGDRVTITCRASESINTYLNWYQQRPGKAPKLLIYAASTLQTGVPSRFSGSGSGTLFTLTISSLQPEDLATYYCQQSFSTLPYTLGRGTKVEIKG
notes: Human monoclonal from EBV-immortalised B cells of a long-term nonprogressor; also called 0.5γ(IC10); 1C10(0.5 γ)
B4: 5G2 (antibody, IgG1, V domains shown)
VH: EVQLVESGGGVVRPGNSLRLSCAASGIIFSTANLHWLRHVPGKGLEWVAIISYDGHRQYYADLVKGRFTISRDNSKNTLHLQMDGLTSDDTAVYYCAKDGADENNLGPAFDYWGRGTLVTVSS
VL: EIVLTQSPATLSVSPGEGATLSCRASQSISSNLAWYQQKPGQAPRLLIYGASTGATGIPARFSGSGSGTDFTLTISRLEPEDFAIYYCQQYGSLPITFGQGTRLEIKR

Tests used:
[1] = target: envelope of HIV-1 strain IIIB (HIV-1 strain IIIB); test: cell-based or functional assay; design: unit not given beside the values
[2] = target: envelope of HIV-1 strain 89.6 (HIV-1 strain 89.6, UniProt Q73372 32-853); test: cell-based or functional assay; design: unit not given beside the values
[3] = target: envelope of HIV-1 strain SF162 (HIV-1 strain SF162, UniProt P19550 32-847); test: cell-based or functional assay; design: unit not given beside the values
[4] = target: envelope of HIV-1 strain BaL (HIV-1 strain BaL); test: cell-based or functional assay; design: unit not given beside the values
[5] = target: envelope of HIV-1 strain JR-FL (JRFLwt), on virus (HIV-1 strain JR-FL); test: cell-based or functional assay; design: unit not given beside the values
[6] = target: envelope of HIV-1 strain JRFLGPER; test: cell-based or functional assay; design: unit not given beside the values
[7] = target: envelope of HIV-1 strain YU2 (HIV-1 strain YU2, UniProt P35961 32-843); test: cell-based or functional assay; design: unit not given beside the values
[8] = target: envelope of HIV-1 clinically isolated strain MTA; test: cell-based or functional assay; design: unit not given beside the values
[9] = target: envelope of HIV-1 clinically isolated strain MOKW; test: cell-based or functional assay; design: unit not given beside the values
[10] = target: envelope of HIV-1 clinically isolated strain YKI; test: cell-based or functional assay; design: unit not given beside the values
[11] = target: envelope of HIV-1 clinically isolated strain YIS; test: cell-based or functional assay; design: unit not given beside the values
[12] = target: envelope of HIV-1 clinically isolated strain MIS; test: cell-based or functional assay; design: unit not given beside the values
[13] = target: envelope of HIV-1 clinically isolated strain kKGO; test: cell-based or functional assay; design: unit not given beside the values
[14] = target: envelope of HIV-1 clinically isolated strain KMT; test: cell-based or functional assay; design: unit not given beside the values
[15] = target: envelope of HIV-1 clinically isolated strain TR43; test: cell-based or functional assay; design: unit not given beside the values
[16] = target: T1, envelope of HIV-2 strain ROD (HIV-2 strain ROD, UniProt P04577 20-858); test: cell-based or functional assay; design: unit not given beside the values
T1 sequence: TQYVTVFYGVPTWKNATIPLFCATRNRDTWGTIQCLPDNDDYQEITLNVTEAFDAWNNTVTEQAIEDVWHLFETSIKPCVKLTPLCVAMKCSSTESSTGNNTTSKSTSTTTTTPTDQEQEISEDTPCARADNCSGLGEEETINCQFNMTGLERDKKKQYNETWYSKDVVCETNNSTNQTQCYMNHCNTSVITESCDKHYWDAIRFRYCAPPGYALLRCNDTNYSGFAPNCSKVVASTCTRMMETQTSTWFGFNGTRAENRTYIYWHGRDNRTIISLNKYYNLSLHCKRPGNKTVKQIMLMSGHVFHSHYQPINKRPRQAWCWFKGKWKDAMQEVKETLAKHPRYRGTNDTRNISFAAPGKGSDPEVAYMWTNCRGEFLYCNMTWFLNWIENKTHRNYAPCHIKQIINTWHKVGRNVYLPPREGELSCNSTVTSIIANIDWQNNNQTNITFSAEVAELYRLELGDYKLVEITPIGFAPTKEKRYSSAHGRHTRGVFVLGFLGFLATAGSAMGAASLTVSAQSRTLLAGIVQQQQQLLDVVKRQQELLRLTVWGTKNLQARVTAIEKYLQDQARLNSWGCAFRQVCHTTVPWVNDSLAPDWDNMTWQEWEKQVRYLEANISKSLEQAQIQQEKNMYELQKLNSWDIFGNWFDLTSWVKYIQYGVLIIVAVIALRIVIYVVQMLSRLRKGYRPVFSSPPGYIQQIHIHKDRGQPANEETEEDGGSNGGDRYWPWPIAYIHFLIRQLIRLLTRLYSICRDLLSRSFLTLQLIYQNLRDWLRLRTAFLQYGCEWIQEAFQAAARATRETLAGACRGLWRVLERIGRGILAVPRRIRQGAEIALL

[17] = target: envelope of HIV-2 strain EHO (HIV-2 strain EHO); test: cell-based or functional assay; design: unit not given beside the values
[18] = target: envelope of standard panel pseudotyped virus SVPB5 (HIV-1 subtype B); test: cell-based or functional assay
[19] = target: envelope of standard panel pseudotyped virus SVPB6 (HIV-1 subtype B); test: cell-based or functional assay
[20] = target: envelope of standard panel pseudotyped virus SVPB8 (HIV-1 subtype B); test: cell-based or functional assay
[21] = target: envelope of standard panel pseudotyped virus SVPB11 (HIV-1 subtype B); test: cell-based or functional assay
[22] = target: envelope of standard panel pseudotyped virus SVPB12 (HIV-1 subtype B); test: cell-based or functional assay
[23] = target: envelope of standard panel pseudotyped virus SVPB13 (HIV-1 subtype B); test: cell-based or functional assay
[24] = target: envelope of standard panel pseudotyped virus SVPB14 (HIV-1 subtype B); test: cell-based or functional assay
[25] = target: envelope of standard panel pseudotyped virus SVPB15 (HIV-1 subtype B); test: cell-based or functional assay
[26] = target: envelope of standard panel pseudotyped virus SVPB16 (HIV-1 subtype B); test: cell-based or functional assay
[27] = target: envelope of standard panel pseudotyped virus SVPB17 (HIV-1 subtype B); test: cell-based or functional assay
[28] = target: envelope of standard panel pseudotyped virus SVPB18 (HIV-1 subtype B); test: cell-based or functional assay
[29] = target: T2, monomeric gp120 (gp120-SF2; Austral Biologicals) (HIV-1 strain SF2, UniProt P03378 32-509); test: gp120-capture ELISA with or without 0.5 µg/ml sCD4
T2 construct: domain: gp120; also called gp120 monomer

[30] = target: T2, monomeric gp120 (gp120-SF2; Austral …); test: gp120-capture ELISA, B cell culture supernatant
[31] = target: T3, V3 peptide NNT20 (HIV-1 strain JR-FL); test: V3-peptide ELISA, NNT20 coated at 5 µg/ml
T3 construct: Coated on the plate at 5 µg/ml
T3 peptide: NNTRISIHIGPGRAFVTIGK

Binder	IC50, neutralizing activity (MTT assay) [1]	IC50, neutralizing activity (MTT assay) [2]	IC50, neutralizing activity (MTT assay) [3]	IC50, neutralizing activity (MTT assay) [4]	IC50, neutralizing activity (MTT assay) [5]	IC50, neutralizing activity (MTT assay) [6]	IC50, neutralizing activity (MTT assay) [7]	IC50, neutralizing activity (MTT assay) [8]	IC50, neutralizing activity (MTT assay) [9]	IC50 in TZM-bl cells [18]	IC50 in TZM-bl cells [19]	IC50 in TZM-bl cells [20]	IC50 in TZM-bl cells [21]	IC50 in TZM-bl cells [22]	IC50 in TZM-bl cells [23]	IC50 in TZM-bl cells [24]	IC50 in TZM-bl cells [25]	IC50 in TZM-bl cells [26]	IC50 in TZM-bl cells [27]	IC50 in TZM-bl cells [28]	also measured
B1	2	> 50	2.3	> 50	> 50	1.2	> 50	0.15	0.42	1.2 µg/mL	> 50 µg/mL	> 50 µg/mL	> 50 µg/mL	> 50 µg/mL	> 50 µg/mL	> 50 µg/mL	> 50 µg/mL	> 50 µg/mL	> 50 µg/mL	> 50 µg/mL	IC50, neutralizing activity (MTT assay) [10]: 2.4; IC50, neutralizing activity (MTT assay) [11]: 2.3; IC50, neutralizing activity (MTT assay) [12]: 0.15; IC50, neutralizing activity (MTT assay) [13]: > 50; IC50, neutralizing activity (MTT assay) [14]: 24; IC50, neutralizing activity (MTT assay) [15]: > 50; IC50, neutralizing activity (MTT assay) [16]: > 50; IC50, neutralizing activity (MTT assay) [17]: > 50; binding result [29]: binds
B2										4.5 µg/mL	> 50 µg/mL	> 50 µg/mL	> 50 µg/mL	> 50 µg/mL	> 50 µg/mL	> 50 µg/mL	> 50 µg/mL	21 µg/mL	> 50 µg/mL	> 50 µg/mL	binding result [30]: binds
B3	> 50	0.12	0.053	0.25	2.9	26	14	0.53	0.02	0.23 µg/mL	38 µg/mL	> 150 µg/mL	35 µg/mL	> 50 µg/mL and 82 µg/mL	> 50 µg/mL and 110 µg/mL	10.5 µg/mL	> 150 µg/mL	6.1 µg/mL	4.5 µg/mL	1.1 µg/mL	IC50, neutralizing activity (MTT assay) [10]: 0.01; IC50, neutralizing activity (MTT assay) [11]: 0.59; IC50, neutralizing activity (MTT assay) [12]: > 50; IC50, neutralizing activity (MTT assay) [13]: 0.32; IC50, neutralizing activity (MTT assay) [14]: 24; IC50, neutralizing activity (MTT assay) [15]: > 50; IC50, neutralizing activity (MTT assay) [16]: > 50; IC50, neutralizing activity (MTT assay) [17]: > 50; binding result [31]: binds; binding result [30]: binds
B4	> 50	14	0.91	5.8	37	> 50	> 50	0.009	0.012	10.1 µg/mL	> 50 µg/mL	> 50 µg/mL	> 50 µg/mL	> 50 µg/mL	> 50 µg/mL	> 50 µg/mL	> 50 µg/mL	> 50 µg/mL	50 µg/mL	11.5 µg/mL	IC50, neutralizing activity (MTT assay) [10]: 1; IC50, neutralizing activity (MTT assay) [11]: > 50; IC50, neutralizing activity (MTT assay) [12]: > 50; IC50, neutralizing activity (MTT assay) [13]: > 50; IC50, neutralizing activity (MTT assay) [14]: > 50; IC50, neutralizing activity (MTT assay) [15]: > 50; IC50, neutralizing activity (MTT assay) [16]: > 50; IC50, neutralizing activity (MTT assay) [17]: > 50; binding result [31]: binds; binding result [29]: binds
